Marks after values point to notes of the source that are not given here.
Columns and labels:
[1] = Stability in human plasma; assay type: in vitro ADME; conditions: 37° C.
Procedure: The objective of the study was to assess the stability of 4-ARM-PEG20K-BA-docetaxel in mouse, rat, dog, and human plasma.
4-ARM-PEG20K-BA-docetaxel was spiked ([…]; 60 μM) into heparinized, pooled male mouse, rat, and dog plasma; mixed sex pooled human plasma; and phosphate buffered saline. Triplicate samples were incubated at 37° C. for 0, 15, 30, 60, 120, and 240 min. Aliquots were removed at each timepoint and analyzed for disappearance of 4-ARM-PEG20K-BA-docetaxel and appearance of docetaxel using the validated dog plasma analytical method.

[2] = tested on: H460 tumors; assay: Anti-tumor activity in H460 non-small cell lung mouse xenograft model; assay type: in vivo
Procedure: H460, LS174T and LoVo tumors were established in female athymic nude mice. Groups of 10 mice received a total of three single doses of 4-ARM-PEG20K-BA-DOC or docetaxel administered every 7 days (q7d×3) at several doses up to a maximum tolerated dose (MTD). Control groups received no treatment after tumor implant. Animals were weighed daily for the first five days and twice weekly thereafter. Tumor volumes were measured twice weekly after the first drug injection.
Anti-tumor activity was measured as changes in tumor volume, time to reach endpoint, and complete or partial tumor regression.
Treatment outcome was evaluated by Tumor Growth Delay (TGD), which is defined as the increase in median time to endpoint in a treatment group compared to the control group. Here it is expressed as % TGD, as a percentage to the median time to endpoint of the control group.
A tumor whose volume was reduced to 50% or less for three consecutive measurements compared to its volume on Day 1 was considered to be in partial regression. Complete regression was defined as volume […] 13.5 mm^3 for three consecutive measurements.
Acceptable toxicity was defined as a group mean body weight (BW) loss of less than 20% during the study and not more than one treatment-related death among ten treated animals.

[3] = Plasma and tumor pharmacokinetics in H460 tumor-bearing nude mice; assay type: in vivo, mouse
Procedure: To assess whether the improved antitumor activity was due to greater plasma and tumor docetaxel exposure following 4-ARM-PEG20K-BA-DOC administration, plasma and tumor homogenates were analyzed after a single IV administration of 4-ARM-PEG20K-BA-DOC or docetaxel in mice bearing H460 tumors. In looking at each of 4-ARM-PEG20K-BA-DOC and docetaxel dosed at their respective maximum tolerated doses (MTDs) of 33 and 25 mg/kg, the following was observed. […] The maximum plasma docetaxel concentration with 4-ARM-PEG20K-BA-DOC was 13-fold lower than that with docetaxel.
The objective of this study was to compare docetaxel pharmacokinetics following 4-ARM-PEG20K-BA-docetaxel with that following docetaxel administration, in plasma and tumor tissue of athymic female mice bearing H460 NSCLC tumors and to determine the effects on complete blood counts. This example summarizes the pharmacokinetic results.
H460 tumor cells were grown in vitro and implanted subcutaneously into female HRLN nude mice. When tumor sizes reached between 172 and 288 mg, animals were dosed by intravenous bolus injection with 25 mg/kg docetaxel or 33 mg/kg 4-ARM-PEG20K-BA-docetaxel at a dosing volume of 10 mL/kg. These dose levels correspond to the maximum tolerated doses for docetaxel and 4-ARM-PEG20K-BA-docetaxel administered on a q7d×3 schedule in this tumor model. Blood and tumor samples (n=7 timepoints with n=3/timepoint) were collected from 0 to 7 days after IV injection. Plasma and tumor samples were analyzed for docetaxel and 4-ARM-PEG20K-BA-docetaxel.

[4] = 18.7 mg/kg (56.1 mg/m^2), q7d×3
[5] = 25 mg/kg (75 mg/m^2), q7d×3 (MTD of docetaxel)
[6] = 33.3 mg/kg (99.9 mg/m^2), q7d×3
[7] = 19 mg/kg conjugate (extrapolated) vs 25 mg/kg docetaxel
[8] = 33 mg/kg conjugate vs 25 mg/kg docetaxel
[9] = 33 mg/kg conjugate vs 25 mg/kg docetaxel, listed as Conjugate Lot 1
[10] = 33 mg/kg conjugate vs 25 mg/kg docetaxel, listed as Conjugate Lot 2
[11] = single IV 33 mg/kg conjugate, listed as Conjugate Lot 1, 33 mg/kg
[12] = single IV 33 mg/kg conjugate, listed as Conjugate Lot 2, 33 mg/kg

Substance: 4-ARM-PEG20K-Butanoate-Linked Docetaxel Conjugate [4-ARM-PEG20K-BA-DOC]
- Conjugate remaining at 4 hr (%) ([1]; 60 μM): 88%
- Docetaxel released at 4 hr (%) ([1]; 60 μM): 4%
- Mass balance (%) ([1]; 4 hr): 92%
- BW Loss (%) ([2]; 14 mg/kg (42 mg/m^2), q7d×3): 0/0%
- No. Surviving/No. Treated Mice ([2]; 14 mg/kg (42 mg/m^2), q7d×3): 10/10
- TGD (%) ([2]; 14 mg/kg (42 mg/m^2), q7d×3): −1%
- BW Loss (%) [2, 4]: 6.2%
- Day of BW Nadir [2, 4]: 22
- No. Surviving/No. Treated Mice [2, 4]: 10/10
- TGD (%) [2, 4]: 56* %
- Tumor growth delay (%) ([2]; 19 mg/kg (58% MTD), q7d×3): 56%
- Day of BW Nadir ([2]; 25 mg/kg (75 mg/m^2), q7d×3): 29
- No. Surviving/No. Treated Mice ([2]; 25 mg/kg (75 mg/m^2), q7d×3): 10/10
- BW Loss (%) [2, 5]: 10.4%
- TGD (%) [2, 5]: 72** %
- Decrease in body weight ([2]; 33 mg/kg (MTD)): 14.2%
- Tumor growth delay (%) ([2]; 33 mg/kg (MTD), q7d×3): 122%
- BW Loss (%) [2, 6]: 14.2%
- Day of BW Nadir [2, 6]: 22
- No. Surviving/No. Treated Mice [2, 6]: 10/10
- TGD (%) [2, 6]: 122** %
- antitumor activity below MTD ([2]; 4-ARM-PEG20K-BA-DOC at 19 mg/kg (58% of its MTD), docetaxel doses less than 25 mg/kg): retained significant antitumor activity
- % TGD fold greater than for docetaxel ([2]; each at MTD): 2.5 fold
- AUC, docetaxel in plasma ([3]; 19 mg/kg (58% MTD), extrapolated from the 33 mg/kg dose): 3488^# hr*ng/mL
- 4-ARM-PEG20K-BA-DOC to Docetaxel Ratio, plasma AUC [3, 7]: 0.6
- 4-ARM-PEG20K-BA-DOC to Docetaxel Ratio, tumor AUC [3, 7]: 1.3
- conjugate AUC, fold lower in tumor compared to plasma ([3]; 33 mg/kg): approximately 2 fold
- conjugate Cmax, fold lower in tumor compared to plasma ([3]; 33 mg/kg): 17 fold
- Conjugate to Docetaxel ratio, AUC, docetaxel in plasma [3, 8]: 1.0
- Conjugate to Docetaxel ratio, AUC, docetaxel in tumor [3, 8]: 2.3
- maximum plasma docetaxel concentration, fold lower than with docetaxel [3, 8]: 13 fold
- plasma docetaxel AUC compared with docetaxel treatment [3, 8]: similar
- tumor docetaxel AUC, fold greater than for docetaxel [3, 8]: 2 fold
- maximum plasma docetaxel concentration, fold lower than with docetaxel ([3]; 33 mg/kg conjugate vs 25 mg/kg docetaxel, listed as 4-ARM-PEG20K-BA-docetaxel): about 14 fold
- Conjugate to Docetaxel ratio, AUC, docetaxel in plasma [3, 9]: 1.0
- Conjugate to Docetaxel ratio, AUC, docetaxel in tumor [3, 9]: 2.3
- Conjugate to Docetaxel ratio, Cmax, docetaxel in plasma [3, 9]: 0.08
- Conjugate to Docetaxel ratio, Cmax, docetaxel in tumor [3, 9]: 1.3
- Conjugate to Docetaxel ratio, AUC, docetaxel in plasma [3, 10]: 0.9
- Conjugate to Docetaxel ratio, AUC, docetaxel in tumor [3, 10]: 2.7
- Conjugate to Docetaxel ratio, Cmax, docetaxel in plasma [3, 10]: 0.06
- Conjugate to Docetaxel ratio, Cmax, docetaxel in tumor [3, 10]: 2.0
- conjugate tumor to plasma ratio ([3]; by 168 hr post-dose, 33 mg/kg): about 7
- plasma docetaxel concentration ([3]; for up to 168 hr after single IV 33 mg/kg conjugate): above 5 ng/mL
- tumor docetaxel concentrations, fold higher than after docetaxel ([3]; from 24 hr post dose through the end of sampling): approximately 5 fold
- Tmax, analyte conjugate, plasma ([3]; single IV 33 mg/kg conjugate): 30 min
- Tmax, analyte conjugate, tumor ([3]; single IV 33 mg/kg conjugate, listed as 4-ARM-PEG20K-BA-docetaxel, 33 mg/kg): ≤ 4 h
- AUClast, analyte conjugate, plasma [3, 11]: 1097.606 µg·h/mL
- AUClast, analyte conjugate, tumor [3, 11]: 652.823 µg·h/mL
- Cmax, analyte conjugate, plasma [3, 11]: 128.354 µg/mL
- Cmax, analyte conjugate, tumor [3, 11]: 7062 ng/mL
- Tmax, analyte conjugate, tumor [3, 11]: 4 h
- AUClast, analyte conjugate, plasma [3, 12]: 1852.51 µg·h/mL
- AUClast, analyte conjugate, tumor [3, 12]: 718.068 µg·h/mL
